Patent US20260265800A1, “NEW FUCOSYLTRANSFERASES FOR IN VIVO SYNTHESIS OF LNFP-III” (DSM IP Assets B.V., priority 2022, published 2026)

B1: Plac_wt: promoter sequence, SEQ ID NO: 37 (nucleic acid, listed as Escherichia coli)
DNA: TGTGAGTTAGCTCACTCATTAGGCACCCCAGGCTTTACACTTTATGCTTCCGGCTCGTATGTTGTGTGGAATTGTGAGCGGATAACAATTTCACACAGGAAACAGCT
modifications: expressed or natural sequence
B2: Parm1: α-1,3-fucosyltransferase from Parabacteroides merdae, GenBank WP_129943149.1, SEQ ID NO: 2 (protein, listed as Parabacteroides merdae)
chain: MKHETPVLSFIIPIYNVELYLPACLESVLHLPLTNFEIILIDDGSTDNSGRIADKYAENYSHIHVIHQTNAGLSATRNRGVELAEGNYIAFLDSDDWLIGDQIVDIYLQTSQANADMGMGNSLFCYPDGSNGNPFAPIPQNLIGQTIDGKYCFTELMKQNVYPPMVYNYIYRREWLLSHQLRFESVLHEDELWTPIALCYARRIVVTNIDFYGYRQREGSIMTSLRREKRIHDLFFIADRLIRLAENYRFDSDDKNLKSQLYVRSYLLYKIAFSSLAHIHDTRFILPTHHLYQLFAIKNKLTADARNTCINQYKTAKQGLKSYLKWRNSYWIRKLTYEISPETKLILIFNTMWNKPLDIPIQKIPANCIITTDRRFLSTADFVVFHLPDLSNELEEDLDKPEGQKWVAWSLECEENYHFLKDPEFMEVFDYKMSYHQDADIVYPYYRYEYRKELILMPEFSFHEKKDICMMISSPFNQSGRQEYLQELMQYISIDSYGKLFNNCKLEKDSGQDSKMELYRQYKFVIAFENSRANDYVTEKFYDPLLAGAVPIYLGAPNIETFAPGENCSVDIRNFSSPKELAAFLIEACKNEKIYNKFLQWKKEPLKPEFMKKIEAQRVHPFIRLCHLLHLPPPTSRYDGARKKNAHRS
B3: PglpF: promoter sequence, SEQ ID NO: 28; positive reference of the LacZ assay (nucleic acid, listed as Escherichia coli)
DNA: GCGGCACGCCTTGCAGATTACGGTTTGCCACACTTTTCATCCTTCTCCTGGTGACATAATCCACATCAATCGAAAATGTTAATAAATTTGTTGCGCGAATGATCTAACAAACATGCATCATGTACAATCAGATGGAATAAATGGCGCGATAACGCTCATTTTATGACGAGGCACACACATTTTAAGTTCGATATTTCTCGTTTTTGCTCGTTAACGATAAGTTTACAGCATGCCTACAAGCATCGTGGAGGTCCGTGACTTTCACGCATACAACAAACATTAACCAAGGAGGAAACAGCT

Columns and labels:
β-galactosidase activity [1] = assay: LacZ assay of promoter strength; type: cell-based; conditions: LacZ assay at 30° C.; Plac induced with IPTG
Experimental: Increasing the promoter strength driving the expression of the desired enzyme may be one way of doing this. The strength of a promoter can be assessed using a lacZ enzyme assay where β-galactosidase activity is assayed as described previously (see e.g., Miller J. H. Experiments in molecular genetics, Cold spring Harbor Laboratory Press, NY, 1972). Briefly the cells are diluted in Z-buffer and permeabilized with sodium dodecyl sulfate (0.1%) and chloroform. The LacZ assay is performed at 30° C. Samples are preheated, the assay initiated by addition of 200 μl ortho-nitro-phenyl-β-galactosidase (4 mg/ml) and stopped by addition of 500 μl of 1 M Na2CO3 when the sample had turned slightly yellow. The release of ortho-nitrophenol is subsequently determined as the change in optical density at 420 nm. The specific activities are reported in Miller Units (MU) [A420/(min*ml*A600)]. A regulatory element with an activity above 10,000 MU is considered strong and a regulatory element with an activity below 3,000 MU is considered weak, what is in between has intermediate strength. An example of a strong regulatory element is the PglpF promoter with an activity of approximately 14.000 MU and an example of a weak promoter is Plac which when induced with IPTG has an activity of approximately 2300 MU. […]

β-galactosidase activity [2] = conditions: LacZ assay, cited from earlier work; for % Activity relative to PglpF: PglpF as positive reference, a range indicates results from multiple assays
LNnT = assay: Deep well assay: HMO profile of LNnT-producing strains expressing α-1,3-fucosyltransferases (HPLC); type: cell-based, Escherichia coli
Experimental: Deep Well Assays in the current examples were performed as originally described to Lv et al (Bioprocess Biosyst Eng 20 (2016) 39:1737-1747) and optimized for the purposes of the current invention. More specifically, the strains disclosed in the present example were screened in 96 deep well plates using a 4-day protocol. During the first 24 hours, precultures were grown to high densities (OD600 up to 5) and subsequently transferred to a medium that allowed induction of gene expression and product formation.
More specifically, during day 1, fresh precultures were prepared using a basal minimal medium (BMM) (pH 7.0) supplemented with magnesium sulphate (0.12 g/L), thiamine (0.004 g/L) and glucose (5.5 g/L). Basal Minimal medium had the following composition: NaOH (1 g/L), KOH (2.5 g/L), KHzPO4 (7 g/L), NH&HzPO4 (7 g/L), Citric acid (0.5 g/l), trace mineral solution (5 mL/L). The trace mineral stock solution contained; ZnSO~*7H~O 0.82 g/L, Citric acid 20 g/L, Mn$04*H&O 0.98 g/L, FeSO4*7H&O 3.925 g/L, CuSO4*5H~O 0.2 g/L. The pH of the Basal Minimal Medium was adjusted to 7.0 with 5 N NaOH and autoclaved. The precultures were incubated for 24 hours at 34° C. and 1000 rpm shaking and then further transferred to 0.75 ml of a new BMM (pH 7,5) to start the main culture. The new BMM was supplemented with magnesium sulphate (0.12 g/L), thiamine (0.02 g/L), a bolus of glucose solution (0.1-0.15 g/L) and a bolus of lactose solution (5-20 g/L) Moreover, a 20% stock solution of sucrose (40-45 g/L) or maltodextrin (19-20 g/L) was provided as carbon source, accompanied by the addition of a specific hydrolytic enzyme, sucrose hydrolase or glycoamylase, respectively, so that glucose was released at a rate suitable for carbon-limited growth and similar to that of a typical fed-batch fermentation process. The main cultures were incubated for 72 hours at 28° C. and 1000 rpm shaking. For the analysis of total broth, the 96 well plates were boiled at 100° C., subsequently centrifuged, and finally the supernatants were analysed by HPLC.
Genetically modified cells expressing individual α-1,3-fucosyltransferase enzymes were screened for their ability to produce the fucosylated HMO LNFP-III.
Genetically modified strains expressing the six individual α-1,3-fucosyltransferases (table 5) were generated as described in the “Method” section. The cells were screened in the deep well assay setup as described in the “Method” section.
The molar content of individual HMOs produced by the strains was measured by HPLC.
The results of the LNFP-III producing cells are shown in table 7 as the fraction of the total molar HMO content (in percentage, %) produced by each strain.

[3] = two genomic copies and high copy plasmid (pUC57-Parm1-PglpF)

Row | Molecule | promoter activity in Miller Units (β-galactosidase activity [1]) | % Activity relative to PglpF (β-galactosidase activity [2]) | Strength (β-galactosidase activity [2]) | LNnT, % of total HMO molar (mM) content produced by each strain (LNnT; FT copy nr as in table 7) [%] | amount of LNnT produced, % of the total HMO content (LNnT; two genomic copies) [%] | relative amount of LNFP-III produced, % of the total HMO content (LNnT; two genomic copies) [%] | amount of LNnT produced, % of the total HMO content (LNnT; [3]) [%] | relative amount of LNFP-III produced, % of the total HMO content (LNnT; [3]) [%]
1 | B1 | approximately 2300 MU | 15-28% | low (a regulatory element with an activity below 3,000 MU is considered weak) | – | – | – | – | –
2 | B2 | – | – | – | 21 | 14 | 81 | 5 | 86
3 | B3 | approximately 14.000 MU | 100% | high (A regulatory element with an activity above 10,000 MU is considered strong) | – | – | – | – | –
